Publication PMC4381051
Read-outs that look alike come from different tables or passages of the source.

How the values were obtained:
Mst77F WT [1] = target: T1, Mst77F WT (UniProt P16909 1-215); assay: FP
T1 sequence: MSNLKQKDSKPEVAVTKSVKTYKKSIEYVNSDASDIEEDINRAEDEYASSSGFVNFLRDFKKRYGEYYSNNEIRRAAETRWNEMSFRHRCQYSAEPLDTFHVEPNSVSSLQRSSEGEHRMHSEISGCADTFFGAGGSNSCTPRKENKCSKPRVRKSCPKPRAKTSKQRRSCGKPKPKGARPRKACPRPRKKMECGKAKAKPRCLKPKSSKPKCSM

Mst77F WT [2] = target: T1, Mst77F WT; assay: FP; remark: listed apart in the source
Mst77F CTD* = target: T2, Mst77F CTD* (UniProt P16909, CTD sequence randomized); assay: FP
T2 sequence: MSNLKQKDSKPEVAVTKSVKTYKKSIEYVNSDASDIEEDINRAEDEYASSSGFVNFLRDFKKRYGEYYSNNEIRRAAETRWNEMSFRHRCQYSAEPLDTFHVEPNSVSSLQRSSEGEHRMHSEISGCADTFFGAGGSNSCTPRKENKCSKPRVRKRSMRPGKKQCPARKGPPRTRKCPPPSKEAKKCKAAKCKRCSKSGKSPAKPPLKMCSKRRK

Mst77F Δ110C [3] = target: T3, Mst77F Δ110C (UniProt P16909 1-105); assay: FP
T3 sequence: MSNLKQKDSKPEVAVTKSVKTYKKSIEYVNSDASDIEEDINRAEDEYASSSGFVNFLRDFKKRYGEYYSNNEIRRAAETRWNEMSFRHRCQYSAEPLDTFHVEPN

Mst77F Δ110C [4] = target: T3, Mst77F Δ110C; assay: pull-down
[5] = target: T4, Mst77F Δ110C;Mst77F Δ100N (Drosophila melanogaster?;Drosophila …, UniProt P16909;P16909 1-105;101-215, |); assay: pull-down
T4 sequence 1: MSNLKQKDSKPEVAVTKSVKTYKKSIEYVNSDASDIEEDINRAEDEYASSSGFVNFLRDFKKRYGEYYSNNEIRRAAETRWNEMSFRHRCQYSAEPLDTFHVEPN
T4 sequence 2: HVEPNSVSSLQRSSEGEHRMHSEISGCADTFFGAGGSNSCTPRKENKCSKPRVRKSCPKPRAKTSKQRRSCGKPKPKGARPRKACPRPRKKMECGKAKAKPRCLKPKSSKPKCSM

B1: poly-AT 12 bp DNA (dsDNA)
DNA 1: ATATATATATAT
DNA 2: ATATATATATAT
In the case of B1, the Kd (Mst77F WT [1]) is reported as 70 ± 30 nM.

B2: random 12 bp DNA (dsDNA)
DNA 1: GTACCACGGTAG
DNA 2: CTACCGTGGTAC
With B2 the Kd (Mst77F WT [2]) was 110 ± 50 nM, the Kd (Mst77F CTD*) was 60 ± 10 nM and the binding result (Mst77F Δ110C [3]) was “no binding”.

B3: random 12 bp DNA, biotinylated (dsDNA)
DNA 1: GTACCACGGTAG
DNA 2: CTACCGTGGTAC
B3: no binding (Mst77F Δ110C [4]); binds [5].

B4: poly-GC 12 bp DNA (dsDNA)
DNA 1: GCGCGCGCGCGC
DNA 2: GCGCGCGCGCGC
B4 was tested, and the Kd (Mst77F WT [1]) was 170 ± 60 nM.
